According to the RNAGym collection of RNA variant scans (doi:10.1093/nar/gkz1192):

B1: CPEB3 Ribozyme (parent)
chain: UAACAGGGGGCCACAGCAGAAGCGUUCACGUCGCAGCCCCUGUCAGAUUCUGGUGAAUCUGCGAAUUCUGCUGUAUAUCUC

Variants of: B1
Experiment: self-cleavage, relative activity (ratio to wild type); higher = more cleavage; in vitro, sequencing
Procedure, shortened: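 Libraries of CPEB3 self-cleaving ribozyme mutants came from rounds of error-prone PCR and carried barcodes, which DNA sequencing matched to variants. In vitro transcription used T7 RNA polymerase at 37°C for 5 hours, with a further 15 min in DNase I before EDTA stopped the reaction; the ribozymes cleaved during both steps. The RNA was reverse transcribed with template switching and sequenced on Illumina. Relative activity is the cleaved/total read fraction of a variant divided by that of the unmutated ribozyme, averaged over three batches with at least 5 reads.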
A28G U54A gave a self-cleavage of 0.6.
A28G U54G gave a self-cleavage of 0.41.
C29G C81A showed a self-cleavage of 0.3.
Work on A28U C68A yielded a self-cleavage of 0.32.
A28U U58A gave a self-cleavage of 0.26.
In the case of A28U U58G, the self-cleavage is reported as 0.2.
In the case of A28U U58C, the self-cleavage is reported as 0.39.
Variant A28G U60A has a self-cleavage of 0.32.
With A28G U60G the self-cleavage was 0.16.
Variant A28G U60C has a self-cleavage of 0.25.
A28G G36A showed a self-cleavage of 0.15.
Variant A28G G36U has a self-cleavage of 0.15.
A28G U58C showed a self-cleavage of 0.27.
Variant A28G U58A has a self-cleavage of 0.24.
For A28G U58G, the self-cleavage was 0.46.
For C29G G73A, the self-cleavage was 0.39.
Variant C29U A75U has a self-cleavage of 0.72.
In the case of C29U A75G, the self-cleavage is reported as 0.46.
A28G G70A showed a self-cleavage of 0.23.
With C29A U78C the self-cleavage was 0.3.
With C29A U78A the self-cleavage was 0.27.
With A28G C81G the self-cleavage was 0.42.
Work on A28G C81A yielded a self-cleavage of 1.
In the case of A28G C81U, the self-cleavage is reported as 0.75.
C29A A65U showed a self-cleavage of 0.14.
C29A A65G showed a self-cleavage of 0.26.
For A28G U31C, the self-cleavage was 0.48.
Work on A28G U31A yielded a self-cleavage of 0.33.
A28G U31G gave a self-cleavage of 0.25.
A28U A64U gave a self-cleavage of 0.31.
A28U A64G showed a self-cleavage of 0.63.
With A28U A64C the self-cleavage was 0.34.
C29A C68A gave a self-cleavage of 0.23.
With A28G G63U the self-cleavage was 0.8.
A28G G63A gave a self-cleavage of 0.38.
For C29G G55A, the self-cleavage was 0.16.
With A28U G63A the self-cleavage was 0.62.
Work on C29G U72C yielded a self-cleavage of 0.26.
In the case of A28U U76C, the self-cleavage is reported as 0.88.
With A28U U76A the self-cleavage was 0.87.
Variant C29A U58C has a self-cleavage of 0.29.
For C29A A64U, the self-cleavage was 0.27.
Work on C29A A64G yielded a self-cleavage of 0.37.
Work on A28G G52A yielded a self-cleavage of 0.76.
In the case of A28G G52C, the self-cleavage is reported as 0.42.
In the case of A28G U66G, the self-cleavage is reported as 0.2.
Work on A28G U66C yielded a self-cleavage of 0.26.
In the case of A28G U66A, the self-cleavage is reported as 0.31.
For C29G G30A, the self-cleavage was 0.2.
Variant C29G A57G has a self-cleavage of 0.51.
With A28U U60G the self-cleavage was 0.16.
A28U U60A showed a self-cleavage of 0.26.
For A28U U60C, the self-cleavage was 0.38.
Work on C29A C59U yielded a self-cleavage of 0.54.
A28G C50A gave a self-cleavage of 0.48.
Variant A28G C50U has a self-cleavage of 0.48.
A28G C50G gave a self-cleavage of 0.29.
A28U U49A gave a self-cleavage of 0.43.
Variant A28U U49G has a self-cleavage of 0.11.
With A28U U49C the self-cleavage was 0.31.
Variant A28U U74A has a self-cleavage of 1.19.
In the case of A28U U74C, the self-cleavage is reported as 0.87.
With A28U G61A the self-cleavage was 0.45.
Variant A28G C59A has a self-cleavage of 0.2.
Variant A28G C59U has a self-cleavage of 0.54.
Variant C29A C32A has a self-cleavage of 0.32.
C29U A47U gave a self-cleavage of 0.24.
In the case of C29U A47G, the self-cleavage is reported as 0.55.
C29U C39G showed a self-cleavage of 0.22.
C29U C39A showed a self-cleavage of 0.28.
C29A C40A showed a self-cleavage of 0.17.
In the case of A28U U51A, the self-cleavage is reported as 0.77.
With A28U U51C the self-cleavage was 0.73.
In the case of C29G C59G, the self-cleavage is reported as 0.2.
With C29G C59A the self-cleavage was 0.1.
Variant A28U U48C has a self-cleavage of 0.42.
Work on A28U U48A yielded a self-cleavage of 0.38.
For A28U U41C, the self-cleavage was 0.73.
In the case of A28U U41G, the self-cleavage is reported as 0.14.
In the case of A28U U41A, the self-cleavage is reported as 0.26.
With A28G C71A the self-cleavage was 0.14.
Variant A28G C71U has a self-cleavage of 0.15.
Work on A28U C39G yielded a self-cleavage of 0.27.
Work on A28U C39A yielded a self-cleavage of 0.15.
